Laboratory results as given in the nanobody polyreactivity screen of Harvey et al. (2022).

experiment: yeast display, Sf9 membrane polyspecificity reagent, FACS + sequencing; frameworks hold sequencing errors
Summary of the method: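 Polyreactivity labels are assigned by the sorting gate from which each nanobody was recovered. The gates were low and high (top ~1%), set on anti-HA fluorescence for expression and streptavidin fluorescence for reagent binding. Before sorting, galactose-induced (36–48 hours) yeast display cells were stained for 1 hour at 4 °C with 10% biotinylated, detergent-solubilized Sf9 membrane reagent.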

| Sequence | polyreactivity (PSR sort gate) |
| --- | --- |
| QVQLVESGGGLVQAGGSLRLSCAASGFTFYVNAMGWYRQATGKERELVAAISSRGGSTYYADSVKGRFTISRDNAKNTVYLQMNSLKPEDTAVYYCNRVRDQRRYEYWGQGTQVTVSS | high polyreactivity |
| QVQLVESGGGLVQAGGSLRLSCAASGSTFAGYAMGWYRQAPGKERELVATITYSGGTTYYADSVKGRFTISRDTAKNTVFLQMKSLKPEDTAVYYCDNKASYWWGFEYWGQGTQVTVSS | low polyreactivity |
| QVQLVESGGGLVQAGGSLRLSCAASGRIFAYNAMGWYRQAPGKERELVAAITWSGSTYYADSVKGRFTISRDNAKNTVYLQMNSLKPEDTAVYYCNAQYRGYWNRGYDYWGQGTQVTVSS | high polyreactivity |
| QVQLVESGGGLVQAGGSLRLSCAASGLILSSNAMGWYRQAPGKERELVATISWSGDSTYYADSVKGRFTISRDNAKNTVYLQMNSLKPEDTAVYDCNADHFQWGAGYDYWGQGTQVTVSS | low polyreactivity |
| QVQLVESGGGLVQAGGSLRLSCAASGSTLIEYAKGWYRQAPGKERELVARISKSGDSTYYADSVKGRFTISRDNAKNTVYLQMNSLKPEDTAVYYCAKYHRDGFYRSYWFRYDYWGQGTQVTVSS | low polyreactivity |
| QVQLVESGGGLVQAGGSLRLSCAASGSIFLTYDMGWYRQAPGKERELVAAITGSGDSTYYADSVKGRFTISRDNAKNTVYLQMNSLKPEDNAVYYCNADGPSTPWVDYGYWGQGTQVTVSS | low polyreactivity |
| QVQLVESGGGLVQAGGSLRLSCAACGLTITFYAMGWYRQAPGKERELVAAISRSGGSTYYADSVKGRFTISRDNAKNTVYLQMNSLKPEVTAVYYCAVVGGYYEFDYEGDYWGQGTQVTVSS | low polyreactivity |
| QVQLVESAGGLVQAGGSLRLSCPASGSIFQPYAMGWYRQAPGKERELVAAINGRGGSTHYADSVKGRFTISRDNAKNTVYLQMNSLKPEDTAVYYCAARYYRDYRWYTYAYDYWGQGTQVTVSS | high polyreactivity |
| QVQLVESGGGLVQAGGSLRLSCAASGRIFATNAMGWYRQAPGKERELVAGIRRSGARTYYADSVKGRFTISRDNAKNTVYLQMYSLKPEDTAVYYCNASLFIEIYSFQYDDHFAEYGYWGQGTQVTVSS | high polyreactivity |
| QVQLVESGGCLVQAGGSLRLSCAASGSIFGTYTMGWYRQAPGKERELVATISNSGGNTYADSVKGRFTISRDNAKNTVNLQMNSLKPEDTAVYYCAVVGGEFSSYGYWGQGTQVTVSS | low polyreactivity |
| QVQLVESGGGLVQAGGSLRLSCAASGRIFDRYAMGWYRQAPGKEMELVAAISSDANTYYADSVKGRFTISRDNAKNTVYLQMNSLKPEDTAVYYCAKVVKGDHPYDYWGQGTQVTVSS | high polyreactivity |
| EEELVESGGGLVQAGGSLRLSCAASGSIFYYNAMGWYRQAPGKERELVAAISRGGTTNYADSVKGRFTISRDNAKNTVYLQMNSLKPEDTAVYYCAAKAYDYYGPVYYWGQGTQVTVSS | high polyreactivity |
| QVQLVESGGGLVQAGGSLRLSCAASGRIFYFNGMGWDRQAPGKERELVAAITWNTGSTYYADSVKGRFTISRDNAKNTVYLQMNSLKPEDTAVYYCNAPWAGQHPTLWKGGYWGQGTQVTVSS | low polyreactivity |
| QVHLVESGGGLFQEGGSLRLSCAPSGSNFATYTMGWYRQAPGKERELVAAIRRSGGSTYYADSVKGRFTLSRDNAKNTVYLLMNSLKPEDTEVYYCAAKHYYYSPYVRYDPPPGYYWGQGTQVTVSS | high polyreactivity |
| QVQLVESGGGLVQAGGSLRLSCAASGSTFSHYAMGWYRQAPGKERELVAAISTSGGSTYYADSVKGRFTISRDNAKNTVYLQMNSLKPEDTAVYYCAAAVPRQGNYGGYEYWGQGSQVTVSS | high polyreactivity |
| QVQLVESGGGLVQAGGSLRLSCAASGIIFGGYAMGWYRQAPGKERELVADISGISSNTYYADSVKGRFTISRDNAKNTVYLQMNSLKPEDTAVYYCAADLTAWWAPVIFYYWGQGTQVTVSS | high polyreactivity |
| QVQLVESGGGIVQAGGSLRLSCAASGRIFAYYAMGWYRQAPGKERELVAAISSSGGGTYYAYSVKGRFTISRDNAKNTVYLQMTSLKPEDTSVYYCAKRVPRKSSVSHPYDYWGQGTQVTVSS | high polyreactivity |
| QVQLVESGGGLVQAGGSLRLSCAASGSTFRYYALGWYRQAPGKEREVVASISIGGGSTYYADSVKGRFTISRDYAKNTVYVQMNSLKPEDTAVYYCAAERTIRAARPFFRTFDYWGQGTQVTVSS | low polyreactivity |
| QGQLVESGGGLVQAGGSLRLSCAASGITYYKYVMAWYIQAPGKERELVAAISRSSGSTYYADSVKGRFTISRDNAKNTVYLQMNSLKPEDTAVYYCARDQGKLVVPYDYWGQGTQVTVSS | high polyreactivity |
| QVQLVESGGRLVQAGGSLRLTCASSGRIFRYYAMGWYRQAPGKERQLVAAISSSGGSTYYADSVKGRFTISRDNAKNTVYLQMNSLKPEDTAVYYCAARYHIDTLFYGSRYDYWGQGTQVTVSS | high polyreactivity |
| QVQLVESGGGLVQAGGSLRLSCAASGRIFFTNAMGWYRQAPGKETELVASIDDTGSTNYADSVKGRFTISRDNAKNTVYLQMNSLKPEDTAVYYCNGVYYSYRYGHDYWGQGTQVTVSS | low polyreactivity |
| QVQLVEAGGGLVQAGGSLRFSCAASGYIVRSYAMGWYRQAPGKERELVAAITRSGGSTYYADSVKGRFSISRDNAQNSVYLQMNSLKPEDTAVYYCTAKRFRTGFDYWGQGTQVTVSS | low polyreactivity |

| Sequence | polyreactivity (PSR sort gate) |
| --- | --- |
| QVQLVESGGGLVQAGVSLRLSCSASGGTFPQYAMAWYRHAPGKEREFVADITSRGGTTYYADSVKGRFTISRDNAKNTVFLQMNRLKPEDTAVYFCAADNPADWWGLDYWGQGTQVTVSS | low polyreactivity |
| QVQLVESGGGLVQAGGSLRLSCAASGFIFVVYAMGWYRQAPGTERELVATISSGGGTYYADSVKGRFTISRDNAKITVYLQMNSLKPEDTAVYYCAARRRRLYHFGGNNYWGQGTLVTVSS | high polyreactivity |
| QVQLVESGGGLVQAGGSLRLSCAASGSIFTYYVMGWYRQAPGKERELVAAITISGGSTYYADSVKGRFTISRDNAKITVYLQMKSLKPEDTAVYYCAAEEVYYEADGFQYSYDYWGQGTLVTVSS | high polyreactivity |
| QVQLVESGGGLVQAGGSLRLSCAASGIIFDGYAMGWYRQAPGKEREFVAGITWSGGSTYYADSVKGRFTISRDNAKNTVYLQMNSLKPEDTSVYYCAAKYYWYYSYSGIPLFDYWGQGTQVTVSS | low polyreactivity |
| QVQLVESGGGLVQAGGSLRLSCAASGFTFGRYTMGCYRQEPGKERELVAAISKSGSGTFYADSVKGRFTISRDNAKNTVYLQINSLKPEDTAVYYCAARYRHFGNQVRTSHSIMYYWGQGTQVTVSS | high polyreactivity |
| QVQLVESGGGLVQAGGSLRLSFAASGRIFYSNARGWYRQAPGKERELVATITRSSGITYYADSVKGRFTISRDNAKNTVYLQMNSLKTEDTAVYYWADRYSNRWARVSGYDYWGQGTQVTVSS | high polyreactivity |
| QVQLVESGGGLFQAGGSLRLSCAASGRIFPWNTMGWYRQAPGKERELVAGINNGDRTYYADSVKGRFTISRVNAKNTVYLQMNSLKPEDTAVYYCAVDTWYFLFQYGYYQEGDYWGQGTQVTVSS | low polyreactivity |
| QVQLVESGGGLVQAVGSLRLSCAACGSIFYWNALGWYRQAPGKEREFVASIRKSGGSTNYADSVKGRFTISRDNAMNTVYLQMNSMKPEDSAVYDCAAYSYYRGPIYDYWGQGTQVTVSS | low polyreactivity |
| QVKLVASGGGLVQEGGSLRLSCAASGRIFGNYAMGWYRQAPGKERELVAAIDLSGDSTYYADSVKGRFTISRDNAKNTVYLQMNSLKPEDTAVYYCAADPDLLWEYSDGYYGGDGGYWGQGTQVTVSS | low polyreactivity |
| QVQRVESGGRLVQAGGSLRLSCAASGRTFWAYAMGWYRQAPGKERELVAAITTSGGSTNYADSVKGRFTISRDNAKNTVYLQMNSLKPEDTAVDYCNADPTYHVVNGVGYWGQGTQVTVSS | low polyreactivity |
| QVQLVESGGGLVQAGGSLRLSCAASGSTFVSYAMGWYRQAPGKERELVAAISSGGGSTYYADSVKGRFTISRDNAKNTVYLQMNSLKPEDTAVYYCAARGYAYRAQYGYWGQGTQVTVSS | high polyreactivity |
| QVQLVESGGGVVQAGRSLRLSCAASGSPFAYNSMGWYRKAPGKERELVAAISWRGTRTYYADSVKGRFTISRDTAKNTVNLQMNSLKPEDTAVYYCATKYGISYDYWGQGTHVTVSS | high polyreactivity |
| QVQLVESCGGLVQAGGSLRLSSAASGSIFEYNAMGWYRQEPGKERELVGAITSTDSTYADSVKGRFTISRDNAKNTVYLQMNSLKPEDTAVYYCAAEDVIYYLTGQWREYDYWGQGTQVTVSS | low polyreactivity |
| QVQLVESGVGLVQAGGSLRLSSAASGRTFPSNNMGWYRQAPGKERELVAAISKNGGSTYYADSVKGRFTISRDNAMNTVYLQMNRLKPEDTAVYYWAATGVSSKRLASQRKLDYWGQGSQVTVSS | high polyreactivity |
| QVQLVESGGGLVQAGGSLRLSCAASGSTFNVNAMGWYRQAPGKERELVAAISSDGITNYADSVKRRFTISRDNAKNTVYLQMNSLKPEDTAVYYCNADWTDGDWADMDYWGQGTQVTVSS | low polyreactivity |
| QVQLVESGGGLVQAGGSLRLSCAGSGFTLGSNAMGWYRQAPGKERELVAVISGSGGSTYYADSVKGRFTISRDNAKNTVYLQMNSLKPEDTAVYYCAAQYSAGQYYGYGYWGQGTQVTVSS | high polyreactivity |
| QVQLVESGGGLVQAGGSLRLICAASGSIFASYVMGWYRQAPGKERDLVAAITSRGTSTYYADSVKGRFTISRDNAKNTVYFQINSLKTEDTAVYYCAARLYGSAPQHEYWGKGTQVTVSS | low polyreactivity |
| QVQLVESGGGLVQAGGSLRLICAASGSTFKRYAMGWYRQAPGKERELVAAISTRGSTYYADSVKGRFTISRDNAKNTVYLQMNSLKPEDTAVYYCNARQALVWKWSWYSPGYDYWGQGTQVTVSS | low polyreactivity |
| QVQLVESGGGLVQAGGSLSLRCAASGRIFTVYAMVWYRPAPGKEMELVAAISKRDGSTSYADSVKGRFTISRDNAKNTVYLQMNSLKPEDTAVYYCNARNHVQVLFRRDYWGQGTQVTVSS | low polyreactivity |
| QVQLVESGGGLVQAGGRLRLSCAASGGWYRQAPGKERELVAAISWRDSSTYYADSVKGRFTISRDNAKNTVYLQMNSLKPEDTAVYYCAVRAYPWPEYYYWGQGTQVTVSS | low polyreactivity |
| QVHLVESGGGLVQAGGSLRISCAASGNIFPNNGMGWNRQAPGKERELVAAISFNGDDTYADSVKGRFTISRDNAKNTVYLKMNSLNPEDTAVYYCNAVPGADQFSAPVITTAEDYWGQGTQVTVSS | low polyreactivity |
